Data as given in the RNAGym collection of RNA variant scans (doi:10.7554/elife.80360).

B1: Hairpin Ribozyme (parent)
chain: GUCCUCUUUCACGUGCGCGUGAAAGAGAGAAGUGAACCAGAGAAACACACGUUGUGGUAUAUUACCUGGUA

Variants of: B1
Assay: self-cleavage, relative activity (ratio to wild type); higher = more cleavage; co-transcriptional

Row | Variant | self-cleavage
1 | GUCCUCUUUCACUCGCGCGUGAAAGAGAGAAGUGAACCAGAGAAACACACGUUGUGGUAUAUUACCUGGUA [G13U U14C] | 0.544
2 | GUCCUCUUUCACGAGCGCGUCAAAGAGAGAAGUGAACCAGAGAAACACACGUUGUGGUAUAUUACCUGGUA [U14A G21C] | 0.467
3 | GUCCUCUUUCACGAGCGCGUGAAAGAGAGAAGUGAACCAGAGAAACACCCGUUGUGGUAUAUUACCUGGUA [U14A A49C] | 0.117
4 | GUCCUCUUUCACGAGCGCGUGAAAGAGAGAAGUGAACCAGAGAAACACGCGUUGUGGUAUAUUACCUGGUA [U14A A49G] | 0.554
5 | GUCCUCUUUCACGAGCGCGUGAUAGAGAGAAGUGAACCAGAGAAACACACGUUGUGGUAUAUUACCUGGUA [U14A A23U] | 0.701
6 | GUCCUCUUUCACGAGCGCGUGAAAGAGCGAAGUGAACCAGAGAAACACACGUUGUGGUAUAUUACCUGGUA [U14A A28C] | 0.454
7 | GUCCUCUUUCACUUGCGCGUGAAAGAGAGAAGUGAACCAGAGAAACACACGUUGUGCUAUAUUACCUGGUA [G13U G57C] | 0.173
8 | GUCCUCUUUCACUUGCGCGUGAAAGAGAGAAGUGAACCAGAGAAACACACGUUGUGUUAUAUUACCUGGUA [G13U G57U] | 0.202
9 | GUCCUCUUUCACUUGCGCGUGAAAGAGAGAAGUGAACCAAAGAAACACACGUUGUGGUAUAUUACCUGGUA [G13U G40A] | 0.342
10 | GUCCUCUUUCACUUGCGCGUGAAACAGAGAAGUGAACCAGAGAAACACACGUUGUGGUAUAUUACCUGGUA [G13U G25C] | 0.274
11 | GUCCUCUUUCACGAGCGCGUGAAAGAGAGAAGUGAACCAGAGUAACACACGUUGUGGUAUAUUACCUGGUA [U14A A43U] | 0.0759
12 | GUCCUCUUUCACGAGCGCGUGAAAGAGAGAAUUGAACCAGAGAAACACACGUUGUGGUAUAUUACCUGGUA [U14A G32U] | 0.108
13 | GUCCUCUUUCACGAGCGCGUGAAAGAGAGAAAUGAACCAGAGAAACACACGUUGUGGUAUAUUACCUGGUA [U14A G32A] | 0.106
14 | GUCCUCUUUCACGAGCGCGUGAAAGAAAGAAGUGAACCAGAGAAACACACGUUGUGGUAUAUUACCUGGUA [U14A G27A] | 0.39
15 | GUCCUCUUUCACGAGCGCGUGAAAGACAGAAGUGAACCAGAGAAACACACGUUGUGGUAUAUUACCUGGUA [U14A G27C] | 0.196
16 | GUCCUCUUUCACGAGCGCGUGAAAGAUAGAAGUGAACCAGAGAAACACACGUUGUGGUAUAUUACCUGGUA [U14A G27U] | 0.192
17 | GUCCUCUUUCACUUGCGCGUGAAAGAGAGAAGUGAACCAGAGAAACACACGGUGUGGUAUAUUACCUGGUA [G13U U52G] | 0.623
18 | GUCCUCUUUCACUUGCGCGUGAAAGAGAGAAAUGAACCAGAGAAACACACGUUGUGGUAUAUUACCUGGUA [G13U G32A] | 0.183
19 | GUCCUCUUUCACUUGCGCGCGAAAGAGAGAAGUGAACCAGAGAAACACACGUUGUGGUAUAUUACCUGGUA [G13U U20C] | 1.03

Row | Variant | self-cleavage
20 | GUCCUCUUUCACUUGCGCGAGAAAGAGAGAAGUGAACCAGAGAAACACACGUUGUGGUAUAUUACCUGGUA [G13U U20A] | 0.73
21 | GUCCUCUUUCACGAGCACGUGAAAGAGAGAAGUGAACCAGAGAAACACACGUUGUGGUAUAUUACCUGGUA [U14A G17A] | 1.03
22 | GUCCUCUUUCACGAGCUCGUGAAAGAGAGAAGUGAACCAGAGAAACACACGUUGUGGUAUAUUACCUGGUA [U14A G17U] | 0.96
23 | GUCCUCUUUCACGAGCGCGUGAAAGAGAGAAGUGAACCAGAGAAAUACACGUUGUGGUAUAUUACCUGGUA [U14A C46U] | 0.126
24 | GUCCUCUUUCACUUGCGCGUGAAAGAGAGAAGUGAACCAGAGAAACACACGUUGUGGUAUAUGACCUGGUA [G13U U63G] | 0.257
25 | GUCCUCUUUCACUUGCGCGUGAAAGAGAGAAGUGAACCAGAGAAACACACGUUGUGGUAUAUUACCGGGUA [G13U U67G] | 0.241
26 | GUCCUCUUUCACUUGCGCGUGAAAGAGAGAAGUGAACCAGAGAAACACACGUUGUGGAAUAUUACCUGGUA [G13U U58A] | 0.808
27 | GUCCUCUUUCACUUGCGCGUGAAAGAGAGAAGUGAACCAGAGAAACACACGUUGUGGCAUAUUACCUGGUA [G13U U58C] | 0.919
28 | GUCCUCUUUCACGAGCGCGUGAAAGAGAGAAGUGAACCAGAGAAACACACGUUGUGGUAUCUUACCUGGUA [U14A A61C] | 0.331
29 | GUCCUCUUUCACGAGCGCGUGAAAGAGAGAAGUGUACCAGAGAAACACACGUUGUGGUAUAUUACCUGGUA [U14A A35U] | 0.656
30 | GUCCUCUUUCACUUGCGCGUGAAAGAGAGAAGAGAACCAGAGAAACACACGUUGUGGUAUAUUACCUGGUA [G13U U33A] | 0.105
31 | GUCCUCUUUCACUUGCGCGUGAAAGAGAGAAGUGAACCAGAGAAACACACGUAGUGGUAUAUUACCUGGUA [G13U U53A] | 0.777
32 | GUCCUCUUUCACGAGCGCGUGUAAGAGAGAAGUGAACCAGAGAAACACACGUUGUGGUAUAUUACCUGGUA [U14A A22U] | 0.715
33 | GUCCUCUUUCACGAGCGCGUGGAAGAGAGAAGUGAACCAGAGAAACACACGUUGUGGUAUAUUACCUGGUA [U14A A22G] | 0.762
34 | GUCCUCUUUCACGAGCGCGUGAAAGAGAGAAGUGAUCCAGAGAAACACACGUUGUGGUAUAUUACCUGGUA [U14A A36U] | 0.582
35 | GUCCUCUUUCACGAGCGCGUGAAAGAGAGAAGUGACCCAGAGAAACACACGUUGUGGUAUAUUACCUGGUA [U14A A36C] | 0.502
36 | GUCCUCUUUCACUUGCGCGUGAAAGAAAGAAGUGAACCAGAGAAACACACGUUGUGGUAUAUUACCUGGUA [G13U G27A] | 0.347
37 | GUCCUCUUUCACUUGCGCGUGAAAGAUAGAAGUGAACCAGAGAAACACACGUUGUGGUAUAUUACCUGGUA [G13U G27U] | 0.215
38 | GUCCUCUUUCACGAGCGCGUGAAAGAGAGAAGUGAACCAGAGAAACACAAGUUGUGGUAUAUUACCUGGUA [U14A C50A] | 0.13
